Measured values taken from US20110008774A1.

Biological target: β-galactosidase (β-gal, Sigma) (E. coli) [β-galactosidase: P00722]
Test: panning of mixtures with wt scFv13-SecM17 ARM complexes in 10:1, 100:1, 1,000:1 or 10,000:1 excess on immobilized β-gal; 10 clones sequenced per mixture

β-galactosidase (β-gal, Sigma) (E. coli) [β-galactosidase: P00722], sequence (P00722 2-1024 limits assumed): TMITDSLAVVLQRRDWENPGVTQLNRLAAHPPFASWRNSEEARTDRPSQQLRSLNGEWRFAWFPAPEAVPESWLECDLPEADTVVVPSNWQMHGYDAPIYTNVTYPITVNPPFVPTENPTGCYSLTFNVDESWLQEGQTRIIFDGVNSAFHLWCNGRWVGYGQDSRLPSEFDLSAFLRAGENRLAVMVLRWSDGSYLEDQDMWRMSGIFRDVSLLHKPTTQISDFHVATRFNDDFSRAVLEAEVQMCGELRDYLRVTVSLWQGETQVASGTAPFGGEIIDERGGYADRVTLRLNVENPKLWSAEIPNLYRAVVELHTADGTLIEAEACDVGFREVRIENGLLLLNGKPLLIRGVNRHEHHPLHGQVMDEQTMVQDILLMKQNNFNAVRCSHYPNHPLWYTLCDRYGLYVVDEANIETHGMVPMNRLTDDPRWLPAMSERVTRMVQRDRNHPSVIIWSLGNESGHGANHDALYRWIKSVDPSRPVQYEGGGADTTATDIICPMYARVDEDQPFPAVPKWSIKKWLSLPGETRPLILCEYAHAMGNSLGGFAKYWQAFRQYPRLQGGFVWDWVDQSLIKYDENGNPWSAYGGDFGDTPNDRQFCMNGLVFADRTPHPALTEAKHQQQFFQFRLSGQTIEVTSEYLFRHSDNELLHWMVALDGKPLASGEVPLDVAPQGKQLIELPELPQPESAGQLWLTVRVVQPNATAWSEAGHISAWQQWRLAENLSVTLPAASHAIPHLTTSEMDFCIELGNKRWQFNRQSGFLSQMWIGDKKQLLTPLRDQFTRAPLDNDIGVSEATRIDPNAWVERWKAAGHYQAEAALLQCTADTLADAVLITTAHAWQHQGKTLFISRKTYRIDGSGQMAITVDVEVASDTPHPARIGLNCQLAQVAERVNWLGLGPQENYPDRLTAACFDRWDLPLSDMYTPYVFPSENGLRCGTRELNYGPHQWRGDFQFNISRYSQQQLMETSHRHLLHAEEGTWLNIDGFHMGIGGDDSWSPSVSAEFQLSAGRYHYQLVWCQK

scFv13-R4-SecM17 fusion
share of sequenced clones recovered after panning: 100%
